Residue numbers refer to the chain shown, from its start.
B1: AHP30005 fully human antibody (antibody, IgG1, V domains shown, not shown: a dimerising Fc or GST)
VH: QVQLVDSGGGLVQAGGSLSVSCAVSGRTALTYAVGWFRQAPGKERDFVAGINWSGSMTNYADSVKGRFTISRDNQKNTVYLQMNSLKPEDTAVYYCAATRTAITMPPQRDGVDYWGKGTTVTVSS
VL: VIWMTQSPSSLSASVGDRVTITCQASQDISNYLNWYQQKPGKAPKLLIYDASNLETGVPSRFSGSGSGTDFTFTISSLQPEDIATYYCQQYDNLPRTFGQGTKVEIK
B2: AHP30019 fully human antibody (antibody, IgG1, V domains shown, not shown: a dimerising Fc or GST)
VH: QVQLVQSGGGLVQPGGSLRLSCAGSGSSFSLAVMGWYRQAPGRQRELVGIISSAAGTNYADSVKGRFTISRDDAKNTLYLQMNSLTAEDTAVYYCWRGAVPGDPYGRWGQGTLVTVSS
VL: EIVLTQSPLSLPVTLGQPASISCRSSQSLVHSDGNTYLNWFQQRPGQPPRRLIYEVSNRDSGVPDRFSGSGSGTDFTLKISRVEAEDVGVYYCMQGTHWPWTFGQGTKVEIK
B3: AHP31319 fully human antibody (antibody, IgG1, V domains shown, not shown: a dimerising Fc or GST)
VH: B2 VH with Q1E, L113T
VL: EIVMTQSPGTLSLSPGEGATLSCRASQSVSNNYLAWYQQKHGQAPRLLIYGASSRATGIPDRFSGSGSGTDFTLTINRLEPEDFALYYCQQYGNSPGTFGQGTKVDIK
B4: Avelumab (antibody, V domains shown)
VH: EVQLLESGGGLVQPGGSLRLSCAASGFTFSSYIMMWVRQAPGKGLEWVSSIYPSGGITFYADTVKGRFTISRDNSKNTLYLQMNSLRAEDTAVYYCARIKLGTVTTVDYWGQGTLVTVSS
VL: QSALTQPASVSGSPGQSITISCTGTSSDVGGYNYVSWYQQHPGKAPKLMIYDVSNRPSGVSNRFSGSKSGNTASLTISGLQAEDEADYYCSSYTSSSTRVFGTGTKVTVLG

Columns and labels:
[1] = biological target: T1, recombinant human PD-L1-His protein (GenScript, Z03425) (human, UniProt Q9NZQ7 19-238); experiment: competition ELISA on coated human PD-L1-His; row antibody titrated, competitor biotinylated Avelumab detected
T1 construct: Bought protein; also called recombinant human PD-L1 protein; human PD-L1 antigen protein; not shown: His tag

[2] = biological target: T1, recombinant human PD-L1-His protein …; experiment: SPR, Biacore 8K, antibody Fc-captured, human PD-L1-His as analyte
[3] = biological target: T2, mouse PD-L1 on a stable cell line (Probio, M00567) (mouse, UniProt Q9EP73 19-290); experiment: FACS on stable cell line expressing mouse PD-L1
T2 construct: whole, on cells; also called cells expressing mouse PD-L1

[4] = biological target: T1, recombinant human PD-L1-His protein …; experiment: competition ELISA on coated human PD-L1-His; row antibody titrated, competitor biotinylated Tecentriq detected
[5] = biological target: T3, cynomolgus monkey PD-L1 on a stable cell line (Probio, M00573) (cynomolgus monkey, UniProt G7PSE7 19-290); experiment: FACS on stable cell line expressing cynomolgus monkey PD-L1
T3 construct: whole, on cells; also called cells expressing monkey PD-L1

[6] = biological target: T1, recombinant human PD-L1-His protein …; experiment: indirect ELISA, plate coated with recombinant human PD-L1-His
[7] = biological target: T4, human PD-L1 on a stable cell line (Probio, RD00868) (human, UniProt Q9NZQ7 19-290); experiment: FACS on stable cell line expressing human PD-L1
T4 construct: whole, on cells; also called cells expressing human PD-L1
T4 sequence (Q9NZQ7 19-290): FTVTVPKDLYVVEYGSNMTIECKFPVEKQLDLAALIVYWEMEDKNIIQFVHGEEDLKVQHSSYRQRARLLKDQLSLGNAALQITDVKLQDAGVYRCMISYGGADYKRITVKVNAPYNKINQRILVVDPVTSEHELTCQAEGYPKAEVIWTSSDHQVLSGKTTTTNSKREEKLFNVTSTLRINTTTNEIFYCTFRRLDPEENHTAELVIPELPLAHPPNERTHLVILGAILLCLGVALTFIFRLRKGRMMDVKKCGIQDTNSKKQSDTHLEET

T2 sequence (Q9EP73 19-290, one chain of several): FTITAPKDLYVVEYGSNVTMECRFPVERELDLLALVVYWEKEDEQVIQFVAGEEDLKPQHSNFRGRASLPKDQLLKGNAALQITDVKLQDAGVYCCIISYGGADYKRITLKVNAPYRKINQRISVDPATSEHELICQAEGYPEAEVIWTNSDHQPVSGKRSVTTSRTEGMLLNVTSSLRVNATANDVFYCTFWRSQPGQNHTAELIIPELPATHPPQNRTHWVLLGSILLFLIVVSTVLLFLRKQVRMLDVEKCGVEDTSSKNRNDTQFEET
T1 sequence (Q9NZQ7 19-238 limits assumed, one chain of several): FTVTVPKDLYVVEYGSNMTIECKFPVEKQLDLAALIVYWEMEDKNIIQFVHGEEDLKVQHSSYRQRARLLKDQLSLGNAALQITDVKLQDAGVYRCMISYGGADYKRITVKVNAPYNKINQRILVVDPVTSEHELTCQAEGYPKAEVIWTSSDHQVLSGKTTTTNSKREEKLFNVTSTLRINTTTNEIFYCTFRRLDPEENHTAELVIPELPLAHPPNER
T3 sequence (G7PSE7 entry or part of it, one chain of several): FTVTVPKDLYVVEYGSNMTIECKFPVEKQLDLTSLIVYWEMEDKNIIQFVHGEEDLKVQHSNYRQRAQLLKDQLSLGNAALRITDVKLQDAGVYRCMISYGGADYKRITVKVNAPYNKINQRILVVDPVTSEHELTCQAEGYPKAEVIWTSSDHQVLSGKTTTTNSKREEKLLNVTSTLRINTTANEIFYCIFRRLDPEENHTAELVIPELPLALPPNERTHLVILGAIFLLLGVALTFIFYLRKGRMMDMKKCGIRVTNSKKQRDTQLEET

Binder	IC50 [1]	Kd [2]	koff [2]	kon [2]	EC50 [3]	IC50 [4]	EC50 [5]	EC50 [6]	EC50 [7]
B1	1.34 nM	0.305 nM	0.000425 s⁻¹	1.39e+06 M⁻¹ s⁻¹	0.184 nM	2.81 nM	0.725 nM	0.275 nM	0.193 nM
B2		50.3 nM	0.00146 s⁻¹	29000 M⁻¹ s⁻¹	31.8 nM	0.972 nM	43.5 nM	4.26 nM	15.9 nM
B3	8.97 nM	5.08 nM	0.000848 s⁻¹	167000 M⁻¹ s⁻¹	0.746 nM	96.1 nM	1.34 nM	0.173 nM	0.977 nM
B4							0.894 nM		

From patent publication EP4806918A1 (Nanjing Probio Biotech Co., Ltd., dated 2026)
